The record followed here is patent US20210095018A1 (BIOLEGEND, published 2021).

The test addresses T1, human Tetraspanin 33 (TSPAN33) (human, UniProt Q86UF1 1-283).
T1 sequence: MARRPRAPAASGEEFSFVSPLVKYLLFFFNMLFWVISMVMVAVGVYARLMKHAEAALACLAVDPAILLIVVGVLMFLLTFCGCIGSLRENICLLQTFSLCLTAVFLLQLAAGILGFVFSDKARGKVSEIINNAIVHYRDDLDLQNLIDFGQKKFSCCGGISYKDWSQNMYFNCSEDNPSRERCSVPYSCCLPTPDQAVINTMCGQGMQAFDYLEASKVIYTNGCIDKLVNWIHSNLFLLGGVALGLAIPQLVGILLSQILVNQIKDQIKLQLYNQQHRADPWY
In words: flow cytometry on human PBMCs activated with CD40L and IL-4; detection with anti-mouse IgG PE. The procedure:
Human peripheral blood mononuclear cells (PBMCs) were isolated in aseptic conditions through a gradient of Ficoll-Paque PLUS (GE Healthcare) according manufacturer instructions. The PBMCs were counted and adjusted in complete RPMI-1640 (10% fetal bovine serum, […] Penicillin, and 1 mg/ml Streptomycin) to a cell density of 1×10⁶ cells/mL. Cells were activated by adding CD40L (TNFSF5; 1 μg/mL) and recombinant human IL-4 (100 U/mL) to the culture. The cells were incubated overnight at 37° C. with 5% CO₂.
The next day the cells were washed with Biolegend's Cell Staining Buffer, and 1×10⁶ cells were stained for 15 minutes in the dark with anti-human CD20-APC and purified anti-human TSPAN33 or purified mouse IgG2b, k isotype control, in a volume of 100 μL. Cells were washed twice with 3 mL of Cell Staining Buffer and then stained for 15 minutes in the dark with anti-mouse IgG PE, in a volume of 100 μL. Then the cells were washed twice with 3 mL of Cell Staining Buffer and analyzed on a flow cytometer. 7-AAD Viability Staining Solution was used to exclude dead cells from analysis.

B1: AB1, mouse anti-TSPAN33 monoclonal antibody (antibody, V domains shown)
VH: EVKLVESGGGLVQPGGSLSLSCAASGFTFTDYYMTWVRQPPGKALEWLVFIRNKANGYTTEYSASVKGRFTISRDNSQSILYLQMNALRAEDSATYYCARYLQTGNFDYWGQGTTLTVSS
VL: EIQMIQTTSSLTASLGDRVTISCRASQDISNFLNWYQQKPDGTIKLLIYFTSRLHSGVPSRFSGSGSGTDYSLTISNLEQEDIATYFCQQGYTVPPTFGGGTKLEIK
notes: Murine monoclonal antibody from a hybridoma; also called AB (clone) Number 1
Regarding B1, the binding result is on record as “binds”.
